# According to patent US20180044415A1 (AbbVie / Abbott, published 2018):
# T1: human DLL3 (immobilized human DLL3 or h293-hDLL3 cells) (human, UniProt Q9NYJ7 27-492, limits assumed)
# T1 construct: the sentence says 'immobilized human DLL3 or h293-hDLL3 cells'
# T1 sequence: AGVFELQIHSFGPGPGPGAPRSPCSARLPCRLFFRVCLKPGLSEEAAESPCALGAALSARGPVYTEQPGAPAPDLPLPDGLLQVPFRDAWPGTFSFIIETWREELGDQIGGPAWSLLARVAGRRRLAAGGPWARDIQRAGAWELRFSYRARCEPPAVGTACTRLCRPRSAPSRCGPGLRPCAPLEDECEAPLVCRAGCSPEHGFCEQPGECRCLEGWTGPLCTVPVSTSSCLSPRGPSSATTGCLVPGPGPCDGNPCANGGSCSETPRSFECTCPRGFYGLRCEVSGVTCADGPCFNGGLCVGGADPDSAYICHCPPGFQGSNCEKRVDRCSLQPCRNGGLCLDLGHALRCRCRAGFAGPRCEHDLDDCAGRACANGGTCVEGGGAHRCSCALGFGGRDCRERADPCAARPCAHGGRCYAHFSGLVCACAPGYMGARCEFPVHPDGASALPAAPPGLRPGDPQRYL
# Target: T1, human DLL3 (immobilized human DLL3 or …)
# Assay: hybridoma screening on immobilized human DLL3 or on h293-hDLL3 cells
row,binding result,Binder
1,binds,"SC16.113 (antibody, V domains shown, murine mAb; variable regions only) VH: DVKLVESGGGLVKPGGSLKLSCAASGFTFSSYTMSWVRQTPEKRLEWVATISSGGSYPYYPDSVKGRFTISRDNAKNTLYLQMSSLKSEDTAMYYCTRDVYDGYSYWGQGTTLTVSS VL: not shown"
2,binds,"SC16.115 (antibody, V domains shown, murine mAb; variable regions only) VH: DVKLVESGGGLVKPGGSLKLSCAASGFTFSSYTMSWVRQTPEKRLEWVATISSGGSYPYYPDSVKGRFTISRDNAKNTLYLQMSSLKSEDTAMYYCTRDVYDGYSYWGQGTTLTVSS VL: not shown"
3,binds,"SC16.81 (antibody, V domains shown, murine mAb; variable regions only) VH: QVQLKESGPVLVAPSQSLSITCTVSGFSLTSYGVHWVRQPPGKGLEWLGVIWAGGSTNYNSALMSRLSISKDNSKSQVFLKMNSLQTDDTAMYYCAKQGNFYAMDYWGQGTSVTVSS VL: QIVLTQSPAIMSASLGERVTLTCTASSSVSSSYLHWYQQKPGSSPKLWIYSTSNLASGVPTRFSGSGSGTSYSLRISSMEAEDAATYYCHQYNRSPLTFGAGTKLELK"
4,binds,"SC16.117 (antibody, V domains shown, murine mAb; variable regions only) VH: QVQLKESGPGLVAPSQSLSITCTVSGFSLTNYGVHWVRQPPGKGLEWLGVIWAGGITNYNSALMSRLSISEDNSKSQVFLKMNSLQTDDTAMYYCARNLGPYAMDYWGQGTSVTVSS VL: DIQMNQSPSSLSASLGDTITITCHVSQNINVWLSWYQQKPGNIPKLLIQKASNLHTGVPSRFSGSGSGTGFTLTISSLQPEDIATYYCQQGQSYPFTFGSGTKLEIK"
5,binds,"SC16.101 (antibody, V domains shown, murine mAb; variable regions only) VL: QIVLTQSPAIMSASLGERVTMTCTASSSVSSSYLHWYQQKPGSSPKLWIYSTSNLASGVPARFSGSESGTSYSLTISNMEAEDAATYYCHQYHRSPFTFGSGTKLEIK V domain: QVTLKESGPGILQPSQTLSLTCSFSGFSLSTSGMGVGWIRQPSGKGLEWLAHIWWDDVKRYNPALKSRLTISKDASSSQVFLKIASVDTAETATYYCAHILDRAYYFDYWGQGTTLTVTS"
6,binds,"SC16.111 (antibody, V domains shown, murine mAb; variable regions only) VH: EVQLQQSGPELEKPGASVKISCKASGYSFTGYNMNWVKQSNGKSLEWIGNIDPYYGGSSYKQKFEGKATLTVDKSSSTAYMQLKSLTSEDSAVYYCARGGSNFFDYWGQGTTLTVSS VL: DIQMTQSPASLAASVGETVTITCRASENIYYSLAWYQQKQGKSPQLLIYNANSLEDGVPSRFSGSGSGTQYSMKINSMQPEDTATYFCKQTYDVPLTFGAGTKLELK"
7,binds,"SC16.103 (antibody, V domains shown, murine mAb; variable regions only) VH: QVTLKESGPGILKPSQTLSLTCSFSGFSLSTSGMGIGWIRQPSGKGLEWLAHIWWDDDKYYNPSLKSQLTISKDSSRNQVFLKITSVDTADTATYYCARRGTAYYFDYWGQGTTLTVSS VL: DIVLTQSPASLAVSLGQRATISCRASKSVSTSGYSYMHWYQQKPGQPPKLLIYLASNLESGVPARFSGSGSGTDFTLNIHPVEEEDAATYYCQHSRELPLTFGAGTKLELK"
8,binds,"SC16.116 (antibody, V domains shown, murine mAb; variable regions only) VH: QVQLKQSGPGRVQPSQSLSITCTVSGFSLTSNGVHWVRQSPGKGLEWLGVLWSGGSTDYNAAFISRLSISKDNYKSQVFFKMNSLQANDTAIYYCARNNNRYGAMDYWGQGTSVTVSS VL: DIVMTQSPSSLTVTAGEKVTMSCTSSQSLLTSGNQKNYLTWYQQKPGQPPKLLIYWASTRESGVPDRFTGSGSGTDFTLTISSLQAEDLAVYYCQNDYSLTFGAGTKLELK"
9,binds,"SC16.80 (antibody, V domains shown, murine mAb; variable regions only) VH: EVQLQQSGPELVKPGGSKKISCKASGYSFTGYSMNWVKQSHGKNLEWIGLINPYSGGTIYNQKFKGKATLTVDKSSSTAYMELLSLTSEDSAVYYCARRSDYPLVYWGQGTLVTVSA VL: ETTVTQSPASLSMAIGEKVTIRCITSTDIDDDMIWYQQKPGEPPKLLISEGNTLRPGVPSRFSSSGYGTDFVFTIENMLSEDVADYYCLKRDDLPYTFGGGTQVEIK"
10,binds,"SC16.79 (antibody, V domains shown, murine mAb; variable regions only) VH: EVQLQQSGPELVKPGASVKISCKTSGYTFTEYTMHWVKQSHGKSLEWIGGINPNNGGTSYNQKFKGKATLTVDKSSSTAYMELRSLTSEDSAVYYCARGPAWFAYWGQGTLVTVSA VL: DIVMSQSPSSLAVSAGEKVTMSCKSSQSLLNSRTRKNYLAWYQQKPGQSPKLLIYWASTRESGVPDRFTGSGSGTDFTLTISSVQAEDLAVYYCKQSYNLYTFGGGTKLKIK"
11,binds,"SC16.104 (antibody, V domains shown, murine mAb; variable regions only) VH: QVQLKESGPDLVQPSQTLSLTCTVSGFSLTFYGVHWVRQPPGKGLEWVGTMGWDDKKYYNSALKSRLSISRDTSKNQVFLKLSSLQTEDTAMYYCTRGGTGFDYWGQGTTLTVSS VL: QIVLSQSPAILSASPGEKVTMTCRASSSVSYIHWYRQKPGSSPKPWIYATSNLASGVPARFSGSGSGTSYSLTISRVEAEDAATYYCQQWSSNPPTFGAGTKLELK"
12,binds,"SC16.114 (antibody, V domains shown, murine mAb; variable regions only) VH: EVQLQQSGAELVKPGASVKLSCTASGFNIKDTYIHWVKQRPEQGLEWIGRIDPANGNTKYDPKFQGKATITPDTSSNTAYLQLSSLTSEDTAVYYCARSWRNYGSSFWYFDVWGAGTTVTVSS VL: QIVLSQSPAILSASPGEKVTMTCRASSSVSYMHWYQQKPGSSPKPWIYATSNLASGVPARFSGSGSGTSYSLTISRVEAEDAATYYCQQWSSNPYTFGGGTKLEIK"
13,binds,"SC16.88 (antibody, V domains shown, murine mAb; variable regions only) VH: QVQLQQSGAELARPGASVKLSCKASGYTCTSYWMQWVKQRPGQGLEWIGAIYPGDGDTRYTQKFKGKATLTADKSSSTAYMQLSSLASEDSAVYYCARGRRTEAWFAYWGQGTLVTVSA VL: not shown"
14,binds,"SC16.107 (antibody, V domains shown, murine mAb; variable regions only) VH: EVQLQQSGPELVKPGASVKMSCKASGYTFTNYVMHWVKQKPGQGLEWIGYINPYNDGTKYNEKFKGKATLTSDKSSTTAYMALSSLTSEDSAVYYCAVAYYSNWGFAYWGQGTLVTVSA VL: DIVMTQSHKFMSTSVGDRVSITCKASQDVNTAVGWYQQKPGQSPKLLIYSASYRYTGVPDRFTGSGSGTDFTFTISSVQAEDLAVYYCQQHYSSPYTFGGGTKVEIK"
15,binds,"SC16.139 (antibody, V domains shown, murine mAb; variable regions only) VH: EVQLQQSGPELVKPGASVKMSCKASGYTFTNYVMHWVKQKPGQGLEWIGYINPYNDGTKYNEKFKGKATLTSDKSSTTAYMALSSLTSEDSAVYYCAVAYYSNWGFAYWGQGTLVTVSA VL: DIVMTQSHKFMSTSVGDRVSITCKASQDVNTAVGWYQQKPGQSPKLLIYSASYRYTGVPDRFTGSGSGTDFTFTISSVQAEDLAVYYCQQHYSSPYTFGGGTKLEIK"
16,binds,"SC16.110 (antibody, V domains shown, murine mAb; variable regions only) VH: EVQLQQSGPGLVRTGASVKISCKASGYSFTGYYMHWVKQSHGKSLEWIGYISCYNGATTYNQNFKGKATFIVDTSSSTAYMQFNSLTSEDSAVYYCARSDGGHAMDYWGQGTSVTVSS VL: NIVMTQTPKFLLVSAGDRVTITCKASQSVSNDVAWYQQKPGQSPKLLIYYASNRYTGVPDRFTGSGYGTDFTFTISTVQAEDLAVYFCQQDYSSPPTFGGGTKLEIK"
17,binds,"SC16.109 (antibody, V domains shown, murine mAb; variable regions only) VL: QIVLTQSPAIMSASPGEKVTMTCSASSSVSYMYWYQQKPGSSPRLLIYDTSNLASGVPVRFSGSGSGTSFSLTISRMEAEDTATYYCQEWSGNPLTFGDGTKLELK V domain: QIQLVQSGPELKKPGETVKISCKASGYTFTNYGMNWVKQAPGKGLKWMGWINTYTGEPAYADDFKGRFAFSLETSASAAYLQINNLKNEDTATFFCANMRPTRGFAYWGQGTLGTVSA"
18,binds,"SC16.78 (antibody, V domains shown, murine mAb; variable regions only) VH: EVKLVESGGGLVKPGGSLKLSCAASGFTFGRYVMSWVRQTPEKKLEWVASITSGGTTYYPDSVKGRFTISRDNARNILYLQMSSLRSEDTAMYYCARVYYHYDDIFAYWGQGTLVTVSA VL: DIKMTQSPSSMYASLGERVTITCKASQDINSYLSWFQQKPGRSPKTLIYRANRLVDGVPSRFSGSGSGQDYSLTISSLDYEDMGIYYCLQYDEFPFTFGSGTKLEIK"
19,binds,"SC16.106 (antibody, V domains shown, murine mAb; variable regions only) VH: QVQLKQSGPGLVAPSQSLFITCTVSGFSLTSYEINWVRQPPGKGLEWLGVIWTGGSTNYNSALISRLSISKDNSKSLVFLKMNSLQTDDTAIYYCVRGVYAMDYWGQGTSVTVSS VL: DIKMTQSPSSMYASLGERVTITCKASQDINSYLSWFQQKPGKSPKTLIYRANRLVDGVPSRFSGSGSGQDYSLTISSLEYEDMGIYYCLQYDEFPFTFGSGTKLEIK"
20,binds,"SC16.105 (antibody, V domains shown, murine mAb; variable regions only) VH: QVQLQQPGAELVKPGASVKLSCKASGYTFTSYWMHWVKQRPGQGLEWIGVINPSNGRTNYNEKFKSKATLTVDKSSSTAYMQLSSLTSEDSAVYYCARRRELGTLYAMDYWGQGTSVTVSS VL: DIVMTQSHKFMSTSVGDRVSITCKASQDVGTAVAWYQQKPGQSPKLLIYWASIRHTGVPDRFTGSGSGTDFTLTISNVQSEDLADYFCQQYSSYPLTFGAGTKLELK"
21,binds,"SC16.84 (antibody, V domains shown, murine mAb; variable regions only) VH: EVQLQQSGPELVKPGASMKISCKASGYSFTGYTMNWVKQSHGKNLEWIGLINPYNGGTTYNQKFKGKATLTVDKSSSTAYMELLSLTSEDSAVYYCALGYYGNYRRYFDVWGAGTTVTVSS VL: DIQMTQSPSSLSASLGGKVTITCKASQDIKKYIAWYQHKPGKGPRLLIHYTSTLEPGIPSRFSGSGSGRDYSFSISNLEPEDIATYYCLQYDILWTFGGGTKLEIK"
